Reference: patent EP4763221A1 (Akeso Biopharma Co., Ltd., dated 2025)

What was measured:
human HER3-his [1] = target: T1, human HER3-his (human, UniProt P21860 20-643); experiment: indirect ELISA, huHER3-his coated at 0.5 µg/mL; antibody 0 nM (blank, background); replicate 2
T1 construct: Coating antigen of the ELISA; also called huHER3-his; antigen human HER3-his; not shown: his tag

human HER3-his [2] = target: T1, human HER3-his; experiment: indirect ELISA, huHER3-his coated at 0.5 µg/mL; antibody 0.001 nM; replicate 2
human HER3-his [3] = target: T1, human HER3-his; experiment: indirect ELISA, huHER3-his coated at 0.5 µg/mL; antibody 0.004 nM; replicate 2
human HER3-his [4] = target: T1, human HER3-his; experiment: indirect ELISA, huHER3-his coated at 0.5 µg/mL; antibody 0.333 nM; replicate 1
human HER3-his [5] = target: T1, human HER3-his; experiment: indirect ELISA, huHER3-his coated at 0.5 µg/mL; antibody 0.037 nM; replicate 2
human HER3-his [6] = target: T1, human HER3-his; experiment: indirect ELISA, huHER3-his coated at 0.5 µg/mL; antibody 0.012 nM; replicate 1
human HER3-his [7] = target: T1, human HER3-his; experiment: indirect ELISA, huHER3-his coated at 0.5 µg/mL; antibody 0.111 nM; replicate 1
human HER3-his [8] = target: T1, human HER3-his; experiment: indirect ELISA, huHER3-his coated at 0.5 µg/mL; antibody 0.111 nM; replicate 2
human HER3-his [9] = target: T1, human HER3-his; experiment: indirect ELISA, huHER3-his coated at 0.5 µg/mL; antibody 1.000 nM; replicate 2
human HER3-his [10] = target: T1, human HER3-his; experiment: indirect ELISA, huHER3-his coated at 0.5 µg/mL; antibody 1.000 nM; replicate 1
human HER3-his [11] = target: T1, human HER3-his; experiment: indirect ELISA, huHER3-his coated at 0.5 µg/mL; antibody 0.012 nM; replicate 2
human HER3-his [12] = target: T1, human HER3-his; experiment: indirect ELISA, huHER3-his coated at 0.5 µg/mL; antibody 0.001 nM; replicate 1
[13] = target: T2, HER3 on SK-BR-3 cell surface (UniProt P21860 20-1342, limits assumed); experiment: FACS on SK-BR-3 cells, anti-human IgG Fc-Alexa Fluor 647 detection
T2 construct: whole, on cells; The target is the HER3 carried on SK-BR-3 cells; also called surface HER3 of SK-BR-3 cells; SK-BR-3 cells expressing HER3

human HER3-his [14] = target: T1, human HER3-his; experiment: indirect ELISA, huHER3-his coated at 0.5 µg/mL, goat anti-human IgG Fc-HRP
human HER3-his [15] = target: T1, human HER3-his; experiment: indirect ELISA, huHER3-his coated at 0.5 µg/mL; antibody 0.333 nM; replicate 2
human HER3-his [16] = target: T1, human HER3-his; experiment: indirect ELISA, huHER3-his coated at 0.5 µg/mL; antibody 0.004 nM; replicate 1
human HER3-his [17] = target: T1, human HER3-his; experiment: indirect ELISA, huHER3-his coated at 0.5 µg/mL; antibody 0 nM (blank, background); replicate 1
human HER3-his [18] = target: T1, human HER3-his; experiment: indirect ELISA, huHER3-his coated at 0.5 µg/mL; antibody 0.037 nM; replicate 1

B1: anti-HER3 monoclonal antibody patritumab (antibody, human IgG1, kappa, V domains shown)
VH: QVQLQQWGAGLLKPSETLSLTCAVYGGSFSGYYWSWIRQPPGKGLEWIGEINHSGSTNYNPSLKSRVTISVETSKNQFSLKLSSVTAADTAVYYCARDKWTWYFDLWGRGTLVTVSS
VL: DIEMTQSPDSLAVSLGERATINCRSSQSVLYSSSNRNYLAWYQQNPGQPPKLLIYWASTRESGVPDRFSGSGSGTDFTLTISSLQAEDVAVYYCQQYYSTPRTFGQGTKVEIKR
notes: IgG1/kappa, expressed in 293F cells; also called HER3-targeted monoclonal antibody patritumab
**Q.** Which results are given for B1?
**A.** absorbance at 450 nm (human HER3-his [1]): 0.087 OD450; absorbance at 450 nm (human HER3-his [2]): 0.394 OD450; absorbance at 450 nm (human HER3-his [3]): 0.872 OD450; absorbance at 450 nm (human HER3-his [4]): 2.89 OD450; absorbance at 450 nm (human HER3-his [5]): 2.57 OD450; absorbance at 450 nm (human HER3-his [6]): 1.78 OD450; absorbance at 450 nm (human HER3-his [7]): 2.83 OD450; absorbance at 450 nm (human HER3-his [8]): 2.79 OD450; absorbance at 450 nm (human HER3-his [9]): 2.84 OD450; absorbance at 450 nm (human HER3-his [10]): 2.87 OD450; absorbance at 450 nm (human HER3-his [11]): 1.77 OD450; absorbance at 450 nm (human HER3-his [12]): 0.382 OD450; EC50 [13]: 8.48 nM; EC50 (human HER3-his [14]): 0.009 nM; absorbance at 450 nm (human HER3-his [15]): 2.86 OD450; absorbance at 450 nm (human HER3-his [16]): 0.87 OD450; absorbance at 450 nm (human HER3-his [17]): 0.091 OD450; absorbance at 450 nm (human HER3-his [18]): 2.57 OD450
